Source: patent publication US20240279310A1 (ALPINE IMMUNE SCIENCES, published 2024)
Where two headings read alike, the source gives them in different places.

Columns and labels:
Assay in all cases: cell-based or functional assay
[1] = molecular target: T1, recombinant human APRIL (Tonbo Biosciences) (human, UniProt O75888 105-250, limits assumed)
T1 sequence (looked up): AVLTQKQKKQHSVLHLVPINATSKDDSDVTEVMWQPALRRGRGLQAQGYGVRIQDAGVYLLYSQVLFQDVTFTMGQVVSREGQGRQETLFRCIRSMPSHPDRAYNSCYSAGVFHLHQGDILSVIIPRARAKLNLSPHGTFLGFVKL

[2] = molecular target: T2, recombinant human BAFF (BioLegend) (human, UniProt Q9Y275 134-285)
[3] = molecular target: T1, recombinant human APRIL (Tonbo …); remark: listed apart in the source
[4] = molecular target: T2, recombinant human BAFF (BioLegend); remark: listed apart in the source
[5] = molecular target: T1, recombinant human APRIL (Tonbo …); remark: listed apart in the source
[6] = molecular target: T2, recombinant human BAFF (BioLegend); remark: listed apart in the source
cynomolgus monkey BAFF = cynomolgus monkey BAFF (cynomolgus monkey, UniProt A0A2K5V2X4 134-285)
rat APRIL = molecular target: T3, rat APRIL (rat, UniProt A0A8J8XC20 96-241)
T3 sequence: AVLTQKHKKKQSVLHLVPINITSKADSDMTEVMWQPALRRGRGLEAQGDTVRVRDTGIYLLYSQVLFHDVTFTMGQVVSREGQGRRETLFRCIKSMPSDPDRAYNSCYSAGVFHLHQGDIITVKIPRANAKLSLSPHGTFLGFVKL

[7] = molecular target: T4, recombinant mouse BAFF (R & D Systems) (mouse, UniProt Q9WU72 127-309)
T4 sequence (Q9WU72 127-309 limits assumed): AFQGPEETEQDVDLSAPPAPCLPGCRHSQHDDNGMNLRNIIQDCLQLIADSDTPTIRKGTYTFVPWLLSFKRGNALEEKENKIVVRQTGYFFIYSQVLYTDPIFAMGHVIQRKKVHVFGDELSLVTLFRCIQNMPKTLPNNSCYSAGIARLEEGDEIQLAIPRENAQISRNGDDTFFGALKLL

[8] = molecular target: T1, recombinant human APRIL (Tonbo …); remark: listed apart in the source
[9] = molecular target: T5, recombinant mouse APRIL (ProSci Incorporated) (mouse, UniProt Q9D777 96-241, limits assumed)
T5 sequence (looked up): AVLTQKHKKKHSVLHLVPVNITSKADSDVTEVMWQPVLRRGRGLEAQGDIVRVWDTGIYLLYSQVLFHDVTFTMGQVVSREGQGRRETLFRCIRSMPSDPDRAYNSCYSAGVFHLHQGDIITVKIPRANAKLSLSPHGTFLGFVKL

cynomolgus monkey APRIL = cynomolgus monkey APRIL (cynomolgus monkey)
rat BAFF = rat BAFF (rat)
[10] = molecular target: T2, recombinant human BAFF (BioLegend); remark: listed apart in the source
[11] = molecular target: T2, recombinant human BAFF (BioLegend); remark: listed apart in the source
[12] = molecular target: T1, recombinant human APRIL (Tonbo …); remark: listed apart in the source
[13] = molecular target: T2, recombinant human BAFF (BioLegend); remark: listed apart in the source
[14] = molecular target: T1, recombinant human APRIL (Tonbo …); remark: listed apart in the source
[15] = molecular target: T2, recombinant human BAFF (BioLegend); remark: listed apart in the source
[16] = molecular target: T1, recombinant human APRIL (Tonbo …); remark: listed apart in the source
[17] = molecular target: T2, recombinant human BAFF (BioLegend); remark: listed apart in the source
[18] = molecular target: T4, recombinant mouse BAFF (R & D Systems); remark: listed apart in the source
[19] = molecular target: T5, recombinant mouse APRIL (ProSci …); remark: listed apart in the source

B1: 7 TACI CRD1/CRD2-Fc (Fc fusion)
TACI vTD-linker-Fc chain: VAMRSCPEEQYWDPLLGTCMSCKTICNHQSQRTCAAFCRSLSCRKEQGKFYDHLLRDCISCASICGQHPKQCDYFCENKLRSGSGGGGSEPKSSDKTHTCPPCPAPEAEGAPSVFLFPPKPKDTLMISRTPEVTCVVVDVSHEDPEVKFNWYVDGVEVHNAKTKPREEQYNSTYRVVSVLTVLHQDWLNGKEYKCKVSNKALPAPIEKTISKAKGQPREPQVYTLPPSRDELTKNQVSLTCLVKGFYPSDIAVEWESNGQPENNYKTTPPVLDSDGSFFLYSKLTVDKSRWQQGNVFSCSVMHEALHNHYTQKSLSLSPG
[1]
  IC50 (read off the curve): ~3 nM
[2]
  IC50 (read off the curve): ~2 nM

B2: 26 TACI CRD2-Fc (TACI vTD SEQ ID NO:26, K77E/F78Y/Y102D; Fc fusion SEQ ID NO: 167) (Fc fusion)
chain: SLSCRKEQGEYYDHLLRDCISCASICGQHPKQCADFCENKLRSGSGGGGSEPKSSDKTHTCPPCPAPEAEGAPSVFLFPPKPKDTLMISRTPEVTCVVVDVSHEDPEVKFNWYVDGVEVHNAKTKPREEQYNSTYRVVSVLTVLHQDWLNGKEYKCKVSNKALPAPIEKTISKAKGQPREPQVYTLPPSRDELTKNQVSLTCLVKGFYPSDIAVEWESNGQPENNYKTTPPVLDSDGSFFLYSKLTVDKSRWQQGNVFSCSVMHEALHNHYTQKSLSLSPG
[3]
  IC50 (read off the curve): ~0.6 nM
[4]
  IC50 (read off the curve): ~2 nM
[5]
  IC50 (nM) APRIL: 179 nM
  IC50 APRIL (Δ TACI 30-110-Fc): 0.05 ratio
[6]
  IC50 (nM) BAFF: 1220 nM
  IC50 BAFF (Δ TACI 30-110-Fc): 0.21 ratio
Cynomolgus monkey BAFF
  BAFF IC50 (nM), signal inhibition in Jurkat/NF-κB/TACI cells: 1.9 nM
Rat APRIL
  APRIL IC50 (nM), signal inhibition in Jurkat/NF-κB/TACI cells: 22.7 nM
[7]
  BAFF IC50 (nM), signal inhibition in Jurkat/NF-κB/TACI cells: 15.2 nM
[8]
  APRIL IC50 (nM), signal inhibition in Jurkat/NF-κB/TACI cells: 3.4 nM
[9]
  APRIL IC50 (nM), signal inhibition in Jurkat/NF-κB/TACI cells: 24.5 nM
Cynomolgus monkey APRIL
  APRIL IC50 (nM), signal inhibition in Jurkat/NF-κB/TACI cells: 3.3 nM
Rat BAFF
  BAFF IC50 (nM), signal inhibition in Jurkat/NF-κB/TACI cells: 3.8 nM
[10]
  BAFF IC50 (nM), signal inhibition in Jurkat/NF-κB/TACI cells: 2.8 nM
[11]
  IC50 value: 0.078 µg/mL
[12]
  IC50 (pM) APRIL: 1760 pM
[13]
  IC50 (pM) BAFF: 1340 pM
[14]
  APRIL IC50 (pM): 9210 pM
  APRIL IC50 (Δ WT): 0.75 ratio
[15]
  BAFF IC50 (pM): 1550 pM
  BAFF IC50 (Δ WT): 0.84 ratio
[16]
  IC50 (nM) APRIL: 214 nM
  IC50 APRIL (Δ TACI 30-110): 0.05 ratio
[17]
  IC50 (nM) BAFF: 1270 nM
  IC50 BAFF (Δ TACI 30-110): 0.28 ratio
[18]
  IC50 (read off the curve): ~1 nM

B3: 13 TACI CRD2-Fc, WT TACI (68-110)-Fc (TACI 68-110, SEQ ID NO: 13, TACI-Fc SEQ ID NO: 171) (Fc fusion)
chain: SLSCRKEQGKFYDHLLRDCISCASICGQHPKQCAYFCENKLRSGSGGGGSEPKSSDKTHTCPPCPAPEAEGAPSVFLFPPKPKDTLMISRTPEVTCVVVDVSHEDPEVKFNWYVDGVEVHNAKTKPREEQYNSTYRVVSVLTVLHQDWLNGKEYKCKVSNKALPAPIEKTISKAKGQPREPQVYTLPPSRDELTKNQVSLTCLVKGFYPSDIAVEWESNGQPENNYKTTPPVLDSDGSFFLYSKLTVDKSRWQQGNVFSCSVMHEALHNHYTQKSLSLSPG
[4]
  IC50 (read off the curve): ~3 nM
[5]
  IC50 (nM) APRIL: 369 nM
  IC50 APRIL (Δ TACI 30-110-Fc): 0.1 ratio
[6]
  IC50 (nM) BAFF: 1330 nM
  IC50 BAFF (Δ TACI 30-110-Fc): 0.23 ratio
[14]
  APRIL IC50 (pM): 12300 pM
  APRIL IC50 (Δ WT): 1 ratio
[15]
  BAFF IC50 (pM): 1850 pM
  BAFF IC50 (Δ WT): 1 ratio
[2]
  IC50 (read off the curve): ~2 nM
[18]
  IC50 (read off the curve): ~5 nM
[19]
  IC50 (read off the curve): ~0.7 nM
